Experimental data: patent US20100248328A1, “HYPERACTIVE VARIANTS OF 5-AMINOLEVULINATE SYNTHASE AND METHODS OF USE” (UNIVERSITY OF SOUTH FLORIDA, priority 2005, published 2010)
Like-named read-outs stand apart in the source and are kept apart here.

How the values were obtained:
[1] = tested on: H1299 lung carcinoma cells; settings: added to cells infected with ALAS construct; cited from earlier work
[2] = Pre-steady-state single turnover reactions, rapid scanning stopped-flow (quinonoid intermediate, 510 nm); assay type: biochemical; settings: 20° C.
Method: FIGS. 5(A) through (D) are graphs showing the single turnover reactions of isolated hyperactive ALAS variants. The pre-steady state kinetic parameters were determined under single turnover conditions (60 μM enzyme-glycine complex, 10 μM succinyl-CoA) at 20° C. by monitoring absorbance changes at 510 nm. The variant catalyzed reactions A4, D8, G7, A8, (panels A-D, respectively) resemble that of the wild-type enzyme in that quinonoid lifetime is observed as a single step of quinonoid intermediate formation and 2-step process of decay (Hunter, & Ferreira. Pre-steady-state reaction of 5-aminolevulinate synthase. Evidence for a rate-determining product release J Biol. Chem. 1999 Apr. 30; 274(18):12222-8).
FIGS. 6(A) through (D) are graphs showing the single turnover reactions of isolated hyperactive ALAS variants. The pre-steady state kinetic parameters were determined under single turnover conditions (60 μM enzyme-glycine complex, 10 μM succinyl-CoA) at 20° C. by monitoring absorbance changes at 510 nm. […]
FIG. 7 is a graph showing the SS2 variant catalyzed reaction. Equilibrium and pre-steady state kinetic parameters for the SS2 variant were determined at 20° C. by monitoring changes in absorbance at 510 nm associated with quinonoid intermediate lifetime, under single-turnover conditions.
ALAS steady-state activity of the ALAS active site loop variants was determined at 20° C. using a continuous spectrophotometric assay as described previously for wild-type ALAS (Hunter & Ferreira. A continuous spectrophotometric assay for 5-aminolevulinate synthase that utilizes substrate cycling. Anal Biochem. 1995 Apr. 10; 226(2):221-4). […] Single turnover data were evaluated using either a two- or three-kinetic-step mechanism as described by Equations 1 and 2, respectively (Hunter, & Ferreira. Pre-steady-state reaction of 5-aminolevulinate synthase. Evidence for a rate-determining product release J Biol Chem. 1999 Apr. 30; 274(18):12222-8). […]

[3] = ALAS steady-state activity, continuous spectrophotometric assay; assay type: biochemical; settings: 20° C.
Method: ALAS steady-state activity of the ALAS active site loop variants was determined at 20° C. using a continuous spectrophotometric assay as described previously for wild-type ALAS (Hunter & Ferreira. A continuous spectrophotometric assay for 5-aminolevulinate synthase that utilizes substrate cycling. Anal Biochem. 1995 Apr. 10; 226(2):221-4). Rapid scanning stopped-flow measurements were performed using a model RSM-100 stopped-flow spectrophotometer (OLIS, Inc.). This instrument has a dead-time of approximately 2-ms and an observation chamber path length of 4 mm Spectral scans covering a wavelength range of 300-570 nm were collected at a rate of 1000 scans/s and then averaged to 62 scans/s in order to reduce the time course data files to an appropriate size for global fit analyses. The temperature of the syringes and the stopped-flow cell compartment was maintained at 20° C. by an external water bath. Pre-steady-state kinetic reactions of the variant enzymes were examined under single turnover conditions, using final concentrations of 60 μM enzyme, 120 mM glycine and 10 μM succinyl-CoA in 100 mM HEPES, pH 7.5 and 10% (v/v) glycerol as previously described (Hunter, & Ferreira. Pre-steady-state reaction of 5-aminolevulinate synthase. Evidence for a rate-determining product release J Biol Chem. 1999 Apr. 30; 274(18):12222-8). Single turnover data were evaluated using either a two- or three-kinetic-step mechanism as described by Equations 1 and 2, respectively (Hunter, & Ferreira. Pre-steady-state reaction of 5-aminolevulinate synthase. Evidence for a rate-determining product release J Biol Chem. 1999 Apr. 30; 274(18):12222-8).
(§1) The ALAS steady-state kinetic parameters of wild-type ALAS and the SS2 variant activity assays were also determined at 15, 25, and 35° C.

[4] = Temperature dependence of steady-state kinetics, Arrhenius plot, thermodynamic activation parameters; assay type: biochemical
Method: FIG. 9 is a graph showing the thermal dependence of the SS2 variant-catalyzed reaction. kcat values were calculated by performing steady-state kinetics at different temperatures. (A) an Arrhenius plot depicting the difference between the wild-type ([…]) and the SS2 variant-catalyzed (◯) reactions at 288, 293, 298, 303 and 308K. Error bars are plotted over and partially obscured by the data points.
as §1
The natural log of the calculated values for the turnover numbers (lnkcat) were plotted vs. the inverse of temperature and the data were fit to the Arrhenius equation.
where Ea is the activation energy, R is the universal gas constant, T is the absolute temperature, and A is the frequency factor. The determined activation energies were then used to calculate the thermodynamic activation parameters, ΔH, ΔG and ΔS, as previously described (Hunter, et al. Transient kinetic studies support refinements to the chemical and kinetic mechanisms of aminolevulinate synthase. J Biol. Chem. 2007 Aug. 10; 282(32):23025-35. Epub 2007 May 7). The turnover numbers for each enzyme were used to construct an Arrhenius plot, from which the thermodynamic activation parameters were derived seen in Table 4.

[5] = 37 C, pH 7.2; cited from earlier work

Molecule | Potentiation of photosensitivity [1] | Qf, rate for quinonoid intermediate formation ([2]; 60 μM enzyme, 120 mM glycine, 10 μM succinyl-CoA) [s⁻¹] | Qd1, rate for first step of quinonoid intermediate decay [2] [s⁻¹] | Qd2, rate for second step of quinonoid intermediate decay [2] [s⁻¹] | Kcat [3] [s⁻¹] | Km ([3]; read-out: Km^Gly) [mM] | Km ([3]; read-out: Km^SCoA) [mM] | ΔG^‡ (30° C.) ([4]; 30° C.) [kcal/mol] | ΔH^‡ (30° C.) ([4]; 30° C.) [kcal/mol] | ΔS^‡ (30° C.) ([4]; 30° C.) [cal/mol · K] | Slope/(K) of Arrhenius plot ([4]; 288-308 K) [K] | Ea, activation energy ([4]; 288-308 K, listed as WTALAS) [kcal/mol] | Q10 for the catalytic rate constant ([4]; steady-state temperature dependence) | Catalytic efficiency for the substrate glycine [5] [M⁻¹ s⁻¹]
CC(=O)N(O)CCCCCNC(=O)CCC(=O)N(O)CCCCCNC(=O)CCC(=O)N(O)CCCCCN [desferrioxamine] | two-fold | – | – | – | – | – | – | – | – | – | – | – | – | –
WT: wild-type murine erythroid 5-aminolevulinate synthase (mALAS-2) (protein, UniProt P08680 50-587, looked up) 5-aminolevulinate synthase, …: QIHLKATKAGGDSPSWAKSHCPFMLSELQDRKSKIVQRAAPEVQEDVKTFKTDLLSTMDSTTRSHSFPSFQEPEQTEGAVPHLIQNNMTGSQAFGYDQFFRDKIMEKKQDHTYRVFKTVNRWANAYPFAQHFSEASMASKDVSVWCSNDYLGISRHPRVLQAIEETLKNHGAGAGGTRNISGTSKFHVELEQELAELHQKDSALLFSSCFVANDSTLFTLAKLLPGCEIYSDAGNHASMIQGIRNSGAAKFVFRHNDPGHLKKLLEKSDPKTPKIVAFETVHSMDGAICPLEELCDVAHQYGALTFVDEVHAVGLYGARGAGIGERDGIMHKLDIISGTLGKAFGCVGGYIASTRDLVDMVRSYAAGFIFTTSLPPMVLSGALESVRLLKGEEGQALRRAHQRNVKHMRQLLMDRGFPVIPCPSHIIPIRVGNAALNSKICDLLLSKHSIYVQAINYPTVPRGEELLRLAPSPHHSPQMMENFVEKLLLAWTEVGLPLQDVSVAACNFCHRPVHFELMSEWERSYFGNMGPQYVTTYA | – | 0.8 | 0.53 | 0.01 | 0.02 ± 0.01 | 14 ± 2 | 0.011 ± 0.001 | 19 | 48 | −95 | −24000 | 48 | seven | 56.7
